Data on 7 molecules can be found in patent US20120316071A1 (published 2012).

For test [1], the target named is T1, Recombinant Human DLL4 (R&D Systems Cat#1506-D4/CF) (human, UniProt Q9NR61 27-524).
T1 construct: Bought recombinant protein; also called delta-like protein 4; rHuman DLL4
In words: ECL (MSD) binding assay, immobilised DLL4, repeat experiment.

Test [2] deals with T1, Recombinant Human DLL4 (R&D Systems …). In words: ECL (MSD) binding assay, DLL4 signal divided by blank, repeat experiment.
For test [3], the target named is T2, rHuman Erythropoietin R/Fc Chimera, CF (R&D Systems Cat#963-ER) (human, UniProt P19235 25-250).
T2 construct: Bought recombinant protein; also called EPO R; EPO R/Fc
T2 sequence (looked up): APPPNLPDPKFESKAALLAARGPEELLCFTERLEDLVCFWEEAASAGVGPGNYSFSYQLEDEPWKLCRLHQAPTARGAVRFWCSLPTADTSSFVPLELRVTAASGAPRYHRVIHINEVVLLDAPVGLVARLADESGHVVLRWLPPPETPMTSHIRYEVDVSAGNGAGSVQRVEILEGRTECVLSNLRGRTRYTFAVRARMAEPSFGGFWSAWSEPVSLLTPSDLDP
In words: ECL Multispot (MSD) assay, antigen spotted on plate, 10 nM Fab.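 Further: purified Fab bound to antigen spots for 1 h at 20 °C, then TAG detection antibody, electrochemiluminescence compared with each well's blank, ratio of 4 or more marks a hit.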

Test [4] has as its target T3, rHuman CD44/Fc Chimera, CF (R&D Systems Cat#3660-CD) (human, UniProt P16070 21-220).
T3 construct: Bought recombinant protein
The description is as above.

The target of test [5] is T4, rHuman HGF R/c-MET/Fc Chimera, CF (R&D Systems Cat#358-MT/CF) (human, UniProt P08581 25-932).
T4 construct: Bought recombinant protein; also called HGF R/Fc
The test is described as above.

Test [6] addresses T5, rHuman P-Cadherin/Fc Chimera, CF (R&D Systems Cat#861-PC) (human, UniProt P22223 108-654).
T5 construct: Bought recombinant protein
The description is as above.

Test [7] has as its target T6, rHuman ErbB2/Fc Chimera, CF (R&D Systems Cat#1129-ER) (human, UniProt P04626 23-652).
T6 construct: Bought recombinant protein
The description is as above.

Test [8] has as its target T7, rHuman EGF R/Fc Chimera, CF (R&D Systems Cat#344-ER) (human, UniProt P00533 25-645).
T7 construct: Bought recombinant protein
The test is described as above.

Test [9] deals with T1, Recombinant Human DLL4 (R&D Systems …). Described as above.
Test [10] has as its target T8, rHuman IGF-1 sR (insulin-like growth factor-1 soluble receptor), CF (R&D Systems Cat#391-GR) (human, UniProt P08069 31-932).
T8 construct: Bought recombinant soluble receptor
The description is as above.

The target of test [11] is T9, rHuman IGF-1 sR, CF (R&D Systems Cat#391-GR) (human, UniProt P08069 31-932).
T9 construct: Bought from R&D Systems as a soluble receptor; also called insulin-like growth factor-1 soluble receptor
In words: ECL multispot (MSD) binding assay; antigen spotted on plate, Fab in solution, Ru-labelled anti-kappa detection.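 Further: purified Fab in 1% BSA TBST incubated 1 h at 20 °C with shaking, signal compared with each well's blank, signal/blank ratio of 4 or above counted as binder.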

In test [12] the target is T10, rHuman HGF R/c-MET/Fc Chimera, CF (R&D Systems Cat#358-MT/CF) (human, UniProt P08581 25-932).
T10 construct: Bought from R&D Systems; also called HGF R/Fc; hepatocyte growth factor receptor; Fc part of the bought chimera not given
Described as above.

Test [13] has as its target T11, rHuman P-Cadherin/Fc Chimera, CF (R&D Systems Cat#861-PC) (human, UniProt P22223 108-654).
T11 construct: Bought from R&D Systems; Fc part of the bought chimera not given
Described as above.

For test [14], the target named is T12, Recombinant Human DLL4 (R&D Systems Cat#1506-D4/CF) (human, UniProt Q9NR61 27-524).
T12 construct: Bought from R&D Systems; also called delta-like protein 4; rHuman DLL4
Described as above.

In test [15] the target is T13, rHuman ErbB2/Fc Chimera, CF (R&D Systems Cat#1129-ER) (human, UniProt P04626 23-652).
T13 construct: Bought from R&D Systems; also called human epidermal growth factor 2 receptor; Fc part of the bought chimera not given
Described as above.

In test [16] the target is T14, rHuman EGF R/Fc Chimera, CF (R&D Systems Cat#344-ER) (human, UniProt P00533 25-645).
T14 construct: Bought from R&D Systems; also called epidermal growth factor receptor; Fc part of the bought chimera not given
Described as above.

Test [17] has as its target T15, rHuman HGF R/c-MET/Fc Chimera, CF (R&D Systems Cat#358-MT/CF) (human, UniProt P08581 25-932).
T15 construct: Bought protein; also called HGF R/Fc; hepatocyte growth factor receptor; Fc part of the bought chimera not given
In words: ECL multispot (MSD) assay; antigen spotted on plate, Fab in solution.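 Further: purified Fab incubated 1 hour at 20 °C in 1% BSA TBST on antigen-coated wells, detected with TAG antibody, ECL read on Sector Imager 2400, compared to each well's blank.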

Test [18] deals with T16, rHuman CD44/Fc Chimera, CF (R&D Systems Cat#3660-CD) (human, UniProt P16070 21-220).
T16 construct: Bought protein; Fc part of the bought chimera not given
Described as above.

For test [19], the target named is T17, rHuman EGF R/Fc Chimera, CF (R&D Systems Cat#344-ER) (human, UniProt P00533 25-645).
T17 construct: Bought protein; also called epidermal growth factor receptor; Fc part of the bought chimera not given
The test is described as above.

Test [20] addresses T18, rHuman ErbB2/Fc Chimera, CF (R&D Systems Cat#1129-ER) (human, UniProt P04626 23-652).
T18 construct: Bought protein; also called human epidermal growth factor 2 receptor; Fc part of the bought chimera not given
The test is described as above.

In test [21] the target is T19, rHuman IGF-1 sR, (IGF-1 sR), CF (R&D Systems Cat#391-GR) (human, UniProt P08069 31-932).
T19 construct: Bought soluble receptor; also called insulin-like growth factor-1 soluble receptor
Described as above.

Test [22] concerns the target T20, rHuman Erythropoietin R/Fc Chimera, CF (R&D Systems Cat#963-ER) (human, UniProt P19235 25-250).
T20 construct: Bought protein; also called EPO R; EPO R/Fc; Fc part of the bought chimera not given
T20 sequence (looked up): T2 sequence (looked up)
The description is as above.

Test [23] has as its target T21, Recombinant Human DLL4 (R&D Systems Cat#1506-D4/CF) (human, UniProt Q9NR61 27-524).
T21 construct: Bought recombinant protein; also called delta-like protein 4; rHuman DLL4
Described as above.

The target of test [24] is T22, rHuman Notch-1/Fc Chimera, CF (R&D Systems Cat#3647-TK) (human, UniProt P46531 19-526).
T22 construct: Bought protein; Fc part of the bought chimera not given
The test is described as above.

Test [25] addresses T23, rHuman P-Cadherin/Fc Chimera, CF (R&D Systems Cat#861-PC) (human, UniProt P22223 108-654).
T23 construct: Bought protein; Fc part of the bought chimera not given
The description is as above.

Substitutions are numbered along the chain they refer to. Numbers in names are those of the source.

B1: Fab VH1-46_IGHD6-6*01_IGHJ1*01 S102A/S103P/S104F/H111F F29A & L6_IGKJ1*01 (Fab, V domains shown)
VH: QVQLVQSGAEVKKPGASVKVSCKASGYTATSYYMHWVRQAPGQGLEWMGIINPSGGSTSYAQKFQGRVTMTRDTSTSTVYMELSSLRSEDTAVYYCAREEYAPFSAEYFQFWGQGTLVTVSS
VL: not shown
notes: Fab as for m1 (CH1 with His6/Flag tags, kappa CL); also called APFF F29A
On to B1, for which the ECL signal is 109000 in [1]; 466 in test [3]; 414 in test [4]; 404 in test [5]; 276 in test [6]; 244 in test [7]. Besides, the ECL signal worked out at 293 in [8], 80700 in test [9] and 315 in test [10]. Moreover, in [2], the Signal/Noise is 238.

B2: Fab VH1-46_IGHD6-6*01_IGHJ1*01 S102A/S103P/S104F/H111F & L6_IGKJ1*01 (Fab, V domains shown)
VH: B1 VH with A29F
VL: not shown
notes: Tested as a Fab made in E. coli; The heavy chain vector (Plasmid A) adds CH1 with His6 and Flag tags; The light chain vector (Plasmid C) adds kappa CL; also called APFF; H:APFF & L:wt
On to B2, for which the ECL signal in test [11] was 342; in test [12], 252; in [13] it was 318; in [14], 197000; in [15] it was 263; in test [16], 279.

B3: Fab VH1-46_IGHD6-6*01_IGHJ1*01 S102A/S103P/S104F (APF) & L6_IGKJ1*01 S30W (Fab, V domains shown)
VH: B1 VH with A29F, F111H
VL: EIVLTQSPATLSLSPGERATLSCRASQSVWSYLAWYQQKPGQAPRLLIYDASNRATGIPARFSGSGSGTDFTLTISSLEPEDFAVYYCQQRSNWPPWTFGQGTKVEIKR
notes: Tested as Fab made in E. coli; The heavy chain vector (Plasmid A) adds CH1 with His and Flag tags, the kappa vector (Plasmid C) adds CL kappa; also called APF / S30W
Turning to B3, the ECL signal in test [17] came to 62 ECL signal; in test [18], 186 ECL signal; in test [19] it was 132 ECL signal; in [20], 73 ECL signal; in [21], 157 ECL signal; in test [22], 30 ECL signal. For the same molecule, the ECL signal in test [23] turned out to be 791 ECL signal; in [24], 105 ECL signal; in test [25], 39 ECL signal.

B4: Fab VH1-46_IGHD6-6*01_IGHJ1*01 S102A/S103P/S104F (APF) & L6_IGKJ1*01 S30T (Fab, V domains shown)
VH: B1 VH with A29F, F111H
VL: B3 VL with W30T
notes: Tested as Fab made in E. coli; The heavy chain vector (Plasmid A) adds CH1 with His and Flag tags, the kappa vector (Plasmid C) adds CL kappa; also called APF / S30T
In the case of B4, the ECL signal worked out at 297 ECL signal in test [17]; 229 ECL signal in [18]; 274 ECL signal in test [19]; 243 ECL signal in [20]; 204 ECL signal in test [21]; 207 ECL signal in test [22]. Also, the ECL signal in test [23] was found to be 1020 ECL signal; in test [24], 127 ECL signal; in test [25], 195 ECL signal.

B5: Fab VH1-46_IGHD6-6*01_IGHJ1*01 S102A/S103P/S104F (APF) & L6_IGKJ1*01 S30L (Fab, V domains shown)
VH: B1 VH with A29F, F111H
VL: B3 VL with W30L
notes: Tested as Fab made in E. coli; The heavy chain vector (Plasmid A) adds CH1 with His and Flag tags, the kappa vector (Plasmid C) adds CL kappa; also called APF / S30L
Consider B5, for which the ECL signal in [17] was 250 ECL signal; in test [18] it was 240 ECL signal; in test [19], 288 ECL signal; in test [20] it was 244 ECL signal; in [21], 193 ECL signal; in test [22] it was 259 ECL signal. For the same molecule, the ECL signal in test [23] turned out to be 1630 ECL signal; in test [24], 296 ECL signal; in [25], 260 ECL signal.

B6: Fab VH1-46_IGHD6-6*01_IGHJ1*01 S102A/S103P/S104F (APF) & L6_IGKJ1*01 S30R (Fab, V domains shown)
VH: B1 VH with A29F, F111H
VL: B3 VL with W30R
notes: Tested as Fab made in E. coli; The heavy chain vector (Plasmid A) adds CH1 with His and Flag tags, the kappa vector (Plasmid C) adds CL kappa; also called APF / S30R
In the case of B6, the ECL signal turned out to be 108 ECL signal in [17]; 89 ECL signal in test [18]; 140 ECL signal in [19]; 35 ECL signal in test [20]; 86 ECL signal in test [21]; 87 ECL signal in test [22]. Also, the ECL signal in test [23] stood at 745 ECL signal; in [24], 155 ECL signal; in test [25], 39 ECL signal.

B7: Fab VH1-46_IGHD6-6*01_IGHJ1*01 S102A/S103P/S104F (APF) & L6_IGKJ1*01 (Fab, V domains shown)
VH: B1 VH with A29F, F111H
VL: not shown
notes: Tested as Fab made in E. coli; The heavy chain vector (Plasmid A) adds CH1 with His and Flag tags, the kappa vector (Plasmid C) adds CL kappa; also called APF / parent; H:APF & L:wt
B7: the ECL signal in test [17] came out at 86 ECL signal; in test [18], 66 ECL signal; in test [19], 161 ECL signal; in [20], 61 ECL signal; in test [21] it was 217 ECL signal; in test [22], 105 ECL signal. The figures for the ECL signal in test [23], in test [24] and in test [25] were 803 ECL signal, 135 ECL signal and 117 ECL signal, respectively.
